Series [1] deals with T1, CBL (47-357), co-expressed from pETDuet-1 MCS2 (UniProt P22681 47-357).
T1 construct: range 47-357; Untagged partner in the Duet co-purification trials; also called CBL TKBD
T1 sequence (looked up): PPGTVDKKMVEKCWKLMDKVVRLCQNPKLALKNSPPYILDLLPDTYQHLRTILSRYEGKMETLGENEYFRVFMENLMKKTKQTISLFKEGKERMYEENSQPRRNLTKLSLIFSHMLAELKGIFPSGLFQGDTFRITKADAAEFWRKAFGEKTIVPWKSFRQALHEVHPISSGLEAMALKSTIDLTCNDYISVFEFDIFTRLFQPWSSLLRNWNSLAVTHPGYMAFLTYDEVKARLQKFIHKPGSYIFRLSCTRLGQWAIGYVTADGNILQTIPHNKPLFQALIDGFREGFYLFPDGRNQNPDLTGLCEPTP
The experiment in a line: Ni-NTA co-purification from Duet co-expression, high salt (0.5 M NaCl), Coomassie SDS-PAGE. The procedure: (§1) Cell pellets were resuspended in either high or low salt (as for high salt except 25 mM HEPEs pH 7.5, 150 mM NaCl) lysis buffer and purified as above on Ni-NTA agarose (Qiagen) with wash buffer (25 mM HEPEs pH 7.5, 150 mM NaCl, 2% glycerol, 20 mM imidazole, 10 mM βME). Bead slurry was mixed with SDS 2X loading buffer (125 mM Tris pH 6.8, 4% SDS, 20% glycerol, 0.715 M βME, bromophenol blue), boiled, and analyzed by 10 or 12.5% SDS-PAGE, stained with Coomassie blue.

Another series addresses T2, CBL (47-357) A223R (UniProt P22681 47-357).
T2 construct: range 47-357; Point mutant within Duet-His-Δlinker-hSLAP2-CBL; also called A223R (CBL mutant)
T2 sequence (looked up): T1 sequence (looked up) with A177R
The experiment in a line: Ni-NTA co-purification, low salt (0.15 M NaCl), Coomassie SDS-PAGE. The procedure:
as §1

The target of another series is T3, CBL (47-357) S226E (UniProt P22681 47-357).
T3 construct: range 47-357; Point mutant within Duet-His-Δlinker-hSLAP2-CBL; also called S226E (CBL mutant)
T3 sequence (looked up): T1 sequence (looked up) with S180E
Described as above. On the procedure: as §1

Series [2] deals with the molecule itself. The experiment in a line: X-ray crystal structure; two SLAP2 helices in the asymmetric unit.

Residue numbers refer to the chain shown, from its start.

B1: Trx-His(6)-Δlinker-hSLAP2 L241R (other)
chain: EAERSKATAVALGSFPAGGPAELSLRLGEPLTIVSEDGDWWTVLSEVSGREYNIPSVHVAKVSHGWLYEGLSREKAEELLLLPGNPGGAFLIRESQTRRGSYSLSVRLSRPASWDRIRHYRIHCLDNGWLYISPRLTFPSLQALVDHYSELADDICCLLKEPCVLQRAGPLPGKDIPLPVTVQRTPLNWKELDSSLLFSEAATGEESLLSEGRRESLSFYISLNDEAVSLDDA
notes: Point mutant within Duet-His-Δlinker-hSLAP2-CBL; not shown: N-terminal thioredoxin (Trx)-His(6)-TEV-site tag and linker of the modified pET32a (Δlinker version)
Take B1: the binding result (in series [1]; with CBL (47-357) A223R) was “no binding” throughout.

B2: Trx-His(6)-Δlinker-hSLAP2 L245P (other)
chain: B1 chain with R213L, L217P
notes: Point mutant within Duet-His-Δlinker-hSLAP2-CBL; not shown: N-terminal Trx-His(6)-TEV site fusion of the modified pET32a (Δlinker form)
Turning to B2, the binding result in series [1] is listed as “no binding”.

B3: Trx-His(6)-Δlinker-hSLAP2 S244E (other)
chain: B1 chain with R213L, S216E
notes: as for B1
Consider B3, for which the binding result with CBL (47-357) S226E is “no binding”.

B4: mouse SLAP2 (residues 28-259) (other, UniProt Q8R4L0 28-259, looked up)
chain: QPERHKVTAVALGSFPAGEQARLSLRLGEPLTIISEDGDWWTVQSEVSGREYHMPSVYVAKVAHGWLYEGLSREKAEELLLLPGNPGGAFLIRESQTRRGCYSLSVRLSRPASWDRIRHYRIQRLDNGWLYISPRLTFPSLHALVEHYSELADGICCPLREPCVLQKLGPLPGKDTPPPVTVPTSSLNWKKLDRSLLFLEAPASGEASLLSEGLRESLSSYISLAEDPLDDA
notes: range 28-259; Trx-His(6) tag removed with thrombin; In the crystal only residues 237-255 are seen; also called mSLAP2; Trx-His(6)-mSLAP2 (before thrombin cleavage)
Turning to B4, the binding result in series [2] was “binds”.

Values taken from patent publication US20230212239A1, “INHIBITORS OF CBL AUTOINHIBITION AND RELATED METHODS” (THE HOSPITAL FOR SICK CHILDREN, priority 2020, published 2023).
